Consider 1 substance from patent US20180072816A1.

The target of this test is human CXCR4 (human) (UniProt P61073). The test can be described thus: cell-based or functional assay.
Sequence of human CXCR4 (human) (P61073 whole entry): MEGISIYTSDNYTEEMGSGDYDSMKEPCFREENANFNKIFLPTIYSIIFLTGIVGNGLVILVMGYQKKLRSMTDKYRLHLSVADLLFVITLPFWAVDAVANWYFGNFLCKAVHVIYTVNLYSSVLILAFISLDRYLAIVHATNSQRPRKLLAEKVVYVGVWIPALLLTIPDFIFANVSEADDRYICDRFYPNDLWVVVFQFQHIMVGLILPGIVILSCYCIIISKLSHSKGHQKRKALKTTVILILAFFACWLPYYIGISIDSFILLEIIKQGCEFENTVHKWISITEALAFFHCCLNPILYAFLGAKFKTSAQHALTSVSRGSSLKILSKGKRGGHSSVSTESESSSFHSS

For the substance anti-CXCR4 MAb 12G5 (antibody), the IC50 (nM) in β-Arrestin BRET assay (Antagonist mode in the presence of 100 nM SDF-1) was 64 nM.
